Data published in the DeepSol protein solubility set.

Assay: soluble on expression in E. coli; label from the status in PepcDB or PDB records

Row | Sequence | soluble on expression in E. coli
1 | MGLELEWMPIEDLKLPSNVIEIIKKRGIKKLNPPQTEAVKKGLLEGNRLLLTSPTGSGKTLIAEMGIISFLLKNGGKAIYVTPLRALTNEKYLTFKDWELIGFKVAMTSGDYDTDDAWLKNYDIIITTYEKLDSLWRHRPEWLNEVNYFVLDELHYLNDPERGPVVESVTIRAKRRNLLALSATISNYKQIAKWLGAEPVATNWRPVPLIEGVIYPERKKKEYNVIFKDNTTKKVHGDDAIIAYTLDSLSKNGQVLVFRNSRKMAESTALKIANYMNFVSLDENALSEILKQLDDIEEGGSDEKELLKSLISKGVAYHHAGLSKALRDLIEEGFRQRKIKVIVATPTLAAGVNLPARTVIIGDIYRFNKKIAGYYDEIPIMEYKQMSGRAGRPGFDQIGESIVVVRDKEDVDRVFKKYVLSDVEPIESKLGSERAFYTFLLGILSAEGNLSEKQLENFAYESLLAKQLVDVYFDRAIRWLLEHSFIKEEGNTFALTNFGKRVADLYINPFTADIIRKGLEGHKASCELAYLHLLAFTPDGPLVSVGRNEEEELIELLEDLDCELLIEEPYEEDEYSLYINALKVALIMKDWMDEVDEDTILSKYNIGSGDLRNMVETMDWLTYSAYHLSRELKLNEHADKLRILNLRVRDGIKEELLELVQISGVGRKRARLLYNNGIKELGDVVMNPDKVKNLLGQKLGEKVVQEAARLLNRFH | soluble
2 | TNLFHTYQYGKETMRGGSELTLKQSGAPTDQVTHENKSGLDKAYITQWSYGIGETWSLLIPDIKGGSSGYLGYDEKVMETVNPSYAQAIARMNRYWGDQP | not soluble
3 | MKADIARCAYMHAHGGFYFDTDYKLLRPLDAQVLSQHCVLPVEEGAPGQEDFKIGNAVFGSEPGHPFWRAFIEHIFTAHAPETLQDHREIPMISGPRGLTRFYNAHGGQFADILFPPRDAFHPDRTWFGLGHRGGKSAVGSHLCWASWRGKSPRRALTNYLRRKLNAVPILEHHHHHH | not soluble
4 | SLQSYQSVDSIRAAALATVGPDAEAEATLDPGLRMPGCPIALQAKPTGTNTVEVACPQPAGWRLFVPLKVRRNQDVLVLRRGISAGETISLADISIEKRDAARIVGAVLADPVAAVGKTARRILPAGSLLSANDLVSQRLVRRGDTVPLVSRNGGLEVRMSGRALSDAGENERVSVENSSSRRVVQGIVEASGTVVVSR | soluble
5 | MKTTLIKVIAASVTALFLSMQVYASGHTAHVDEAVKHAEEAVAHGKEGHTDQLLEHAKESLTHAKAASEAGGNTHVGHGIKHLEDAIKHGEEGHVGVATKHAQEAIEHLRASEHKSH | not soluble
6 | MATITDNDVALTITKIHQIQGSGTAFNSAFGGIRTIEGVVVAAFPGGSGLNGFFVQEEDADTDNDSTTSEGIFVFDPTGQFSGSVGDKVRVTGSVSEFSTNNGVSSLTQLSSVSSIINLGADILPKMSNIQLPVTTVADLERYEGMRVNISAGNGDLTVTEHFQLGRFGQVVLSATGTSNQPGTDGRLEQYTQFNDPSVAGYAAYLDEIAKRRIILDDGSSTQNPATIIFGRGGEPLSATNTLRGGDTVASITGVLDQRFEGYRVQTSTGVDFTPANPRPATTPDVGGTLKVASFNVLNYFNGDLEHHHHHH | not soluble
7 | MGSDKIHHHHHHMTNIAILGTASDVGKSIVATALCRIFSNAGVDVAPYKAQNMSNNSGVTPDGFEMGRAQIVQAQAARVAPHADMNPVLLKPNTDTGAQVVLQGKVCADKSAREYFGDTQRWAEAAFESLDRLMVRHELLVIEGAGSCAEMNLYQRDFVNFKTARRAGAAVILVADIDRGGVFAQVVGTLAVIPPEDRALVKGVIINRFRGDKSLFEGGVKMLESMTGVPVLGVIPYFRGFTIDAEDAVPLSSVVDPKQEPSGDKIGVAAIYFPHISNFTDLAPLERDPSVELHYLHRPKSLDGYKALILPGSKNVRGDLAWLETMGWRDEIEKFRKRGGIIVGLCGGYQMLGASIADPYGVEGAPGASAGLAMLPVETVLEREKALCNSVGKIAGTPFFVSGYEIHMGRTALEPGASPLLEVTERNGVATDDFDGAKSADGQVTGTYFHGFFDRPEVRTWFLRLLDGGYESPRGASVADPFELLAKHFSENLDLEKLFAIAGLSVKGEKES | not soluble
8 | MGSDKIHHHHHHMTEGSQQKRVVVVGAGWAGLGATYHLAKQGYDVTLLEAGPYPGGLVAGWQTTGGKSVEAGIHGFWYPYRNIFALINELNIHPFTTWTRSAQYSPAGLEVESPIFQDLPRLPTPLGTFIYTQFQRLPLIDRLSALPLLYAVVDFDNSDAAWRRYDSVTARELFKDFGVSARLYKEAFEPMLLVGLFAPGEQCSAAATLGMLYFFILAHQADFDVVWCRGTVGEKIFRPWVERIEKAGAKVLPKHRVTDLIIDSNNQATGVVCGNEVFDADAVIFAVGITGMKKIVSSSPSLQSRAEFRNLHNLGAIDVLATRLWFDRKIDIPRPSNACFGFDNTTGWTFFDLNALHDEYKNELGTVIEADFYHANQFLNWSDAEIVATVQNYLTTCVPGFAQAKVIDSSVIRLPQAVTHFAPGSYPYMLPAKTSFDNVFMSGDWIVNRHGSWSQEKAYVTGLEAANLVVSHLGEGTPVEILPVEADETHIQVARSLNQTVRKLGKFILPNFWLP | not soluble
9 | GPLGSMSVAGLKKQFHKATQKVSEKVGGAEGTKLDDDFKEMERKVDVTSRAVMEIMTKTIEYLAHLSSLLQAEALLAEAMLKFGRELGDDCNFGPALGEVGEAMRELSEVKDSLDIEVKQNFIDPLQNLHDKDLREIQHHLKKLEGRRLDFDYKKKRQGKIPDEELRQALEKFDESKEIAESSMFNLLEMDIEQVSQLSALVQAQLEYHKQAVQILQQVTVRLEERIRQA | soluble
10 | AAQAEREELAAGRMPGGGPQGAPAAAGGGGVSHRAGSRDCLPPAACFRRRRLARRPGYMRSSTGPGIGFLSPAVGTLFRFPGGVSGEESHHSESRARQCGLDSRGLLVRSPVSKSAAAPTVTSVRGTSAHFGIQLRGGTRLPDRLSWPCGPGSAGWQQEFAAMDSSETLDASWEAACSDGARRVRAAGSLPSAELSSNSCSPGCGPEVPPTPPGSHSAFTSSFSFIRLSLGSAGERGEAEGCPPSREAESHCQSPQEMGAKAASLDGPHEDPRCLSQPFSLLATRVSADLAQAARNSSRPERDMHSLPDMDPGSSSSLDPSLAGCGGDGSSGSGDAHSWDTLLRKWEPVLRDCLLRNRRQMEVISLRLKLQKLQEDAVENDDYDKAETLQQRLEDLEQEKISLHFQLPSRQPALSSFLGHLAAQVQAALRRGATQQASGDDTHTPLRMEPRLLEPTAQDSLHVSITRRDWLLQEKQQLQKEIEALQARMFVLEAKDQQLRREIEEQEQQLQWQGCDLTPLVGQLSLGQLQEVSKALQDTLASAGQIPFHAEPPETIRSLQERIKSLNLSLKEITTKVCMSEKFCSTLRKKVNDIETQLPALLEAKMHAISGNHFWTAKDLTEEIRSLTSEREGLEGLLSKLLVLSSRNVKKLGSVKEDYNRLRREVEHQETAYETSVKENTMKYMETLKNKLCSCKCPLLGKVWEADLEACRLLIQSLQLQEARGSLSVEDERQMDDLEGAAPPIPPRLHSEDKRKTPLKESYILSAELGEKCEDIGKKLLYLEDQLHTAIHSHDEDLIQSLRRELQMVKETLQAMILQLQPAKEAGEREAAASCMTAGVHEAQA | soluble
11 | EQAPQYVDETISLSAKTLFGFDKDSLRAEAQDNLKVLAQRLSRTNIQSVRVEGHTDFMGSDKYNQALSERRAYVVANNLVSNGVPVSRISAVGLGESQAQMTQVCEAEVAKLGAKVSKAKKREALIACIEPDRRVDVKIRSIVTRQVVPAHNHHQHLEHHHHHH | soluble
12 | SNTQAERSIIGMIDMFHKYTRRDDKIDKPSLLTMMKENFPNFLSACDKKGTNYLADVFEKKDKNEDKKIDFSEFLSLLGDIATDYHKQSHGAAPCSGGSQ | soluble
13 | MNKEAFERLPQEKKKIIETAYFSAVRKEISASQFFGVCKEALSKDQFESLFSSSTAGREQQEEMKTEHLQDIIQYSGVDLKEEAEHIVRETETNINFGEYEEEDVNNHIGSLMNVPLFREFVSRIGNSRRVGISEESFFLLFQVAKRKMLDIVEKMEESSKWRVEYNLSEFIIRIKNDLSRQLWCLEQIEKAEIEKFTIRRGEEEGRKKVKKTIQEREDLVIKKRLSNTVALAALGIQQKSWMSAEDVRVSEESTAFNSIYSPFDEKALERKVVNRTITMKDFLYVLERDRRYSKSVFTIQHYFRRGSA | not soluble
